Assay results published in US20240245795A1, “PREPARATION METHOD AND APPLICATION OF ANTIBODY DRUG CONJUGATE” (priority 2021, published 2024).

Tested on: Human lung squamous carcinoma cells NCI-H2170
Assay: In vivo anti-tumor experiment (5), NCI-H2170 xenograft
Parameters: species or system female nude mice
Settings: 5 mg/kg i.v. single dose
Description: Human lung squamous carcinoma cells NCI-H2170 (ATCC) were suspended in physiological saline. 4×10^7 cells were subcutaneously transplanted into the right flank of female nude mice, which were randomized into groups on day 6. Taking the grouping day as day 0, Antibody Conjugate 13, DS-1062a (the positive control drug) and the hIgG-A-11 conjugate as a negative control group were administered intravenously to the tail at a dose of 5 mg/kg respectively on day 0.

B1: DS-1062a (conjugate, chains of the INN, looked up)
VH: QVQLVQSGAEVKKPGASVKVSCKASGYTFTTAGMQWVRQAPGQGLEWMGWINTHSGVPKYAEDFKGRVTISADTSTSTAYLQLSSLKSEDTAVYYCARSGFGSSYWYFDVWGQGTLVTVSS
VL: DIQMTQSPSSLSASVGDRVTITCKASQDVSTAVAWYQQKPGKAPKLLIYSASYRYTGVPSRFSGSGSGTDFTLTISSLQPEDFAVYYCQQHYITPLTFGQGTKLEIK
modifications: deruxtecan payload
  anti-tumor activity: showed anti-tumor activity
